Patent US20050171004A1, “Use of cardiotrophin-1 to promote wound healing and counteract overt fibrosis” (priority 2003, published 2005)

Experiments:
cardiac fibroblasts [1] = test: Wounded monolayer model, cortactin immunostaining; format: cell-based, rat; conditions: 4 hours after creation of the wound
Description: Cardiac fibroblasts were seeded onto coverslips in 6-well dishes and allowed to proliferate. Once the cells were near confluency, they were serum deprived for 24 hours. A scrape was made down the middle of the coverslip with the blunt end of a 1 ml syringe and the media was changed again. Cells were further incubated in the presence or absence of CT-1 and inhibitors at specified concentrations for specified times. The cells were then subjected to immunofluorescence staining as described herein.

rat cardiac fibroblasts = test: Boyden chamber migration assay; format: cell-based
Description: Migration of rat cardiac fibroblasts was measured using Boyden chamber (Neuro Probe Inc. Gaithersburg, Md.) assay (Richards and McCullough, 1984, Immunol Commun 13: 49-62). Chemoattractants were diluted in DMEM/F12 and loaded into the lower wells at specified concentrations. The polycarbonate membrane (5 μm pore) was placed over the wells, and 55 μL cell suspension in DMEM/F12 supplemented with 100 μM ascorbate was loaded into each well (1000 cells/mm^2). The chamber was incubated overnight in 5% CO2 and 100% humidity at 37° C. Cells that had migrated through the membrane and become adherent to the lower surface were fixed with methanol and stained with Diff-Quick stain (Dade Behring AG, Düdingen, Switzerland). Cell migration was determined by counting the number of cells per high power field.

cardiac fibroblasts [2] = test: Immunofluorescence of STAT3 nuclear accumulation; format: cell-based, rat; conditions: CT-1 for 5 minutes
Description: Cardiac fibroblasts were seeded onto coverslips in 6 well dishes and allowed to attach overnight in media containing 10% serum. The cells were rendered quiescent in serum free media for 24 hours before being stimulated with CT-1 for specified times. The media was removed, cells were rinsed with PBS and fixed with 4% paraformaldehyde. Cells were permeabilized with 0.1% Triton X-100 and incubated with primary antibodies, biotinylated secondary antibodies, and streptavidin FITC. Nuclei were stained with Hoechst 33342. The cells were visualized with epifluorescent microscopy with appropriate filters (Nikon Canada).

[3] = system: porcine coronary artery vascular smooth muscle cells; test: Chemotaxis of vascular smooth muscle cells (data not shown); format: cell-based
cardiac fibroblasts [4] = test: Cell counting (Coulter counter); format: cell-based, rat; conditions: CT-1 for 24 hours
Description: To determine absolute cell numbers after stimulation with CT-1, the total number of cells were counted. Equal numbers of cells were loaded into each well of 24 well plates and incubated with CT-1 for 24 hours. The cells were detached with trypsin, diluted in filtered phosphate buffered saline, and counted with Model ZM Coulter cell counter (Beckman Coulter, Fullerton, Calif.).

cardiac fibroblasts [5] = test: 3H-thymidine incorporation (DNA synthesis) proliferation assay; format: cell-based, rat
Description: DNA synthesis was measured by uptake of ^3H-thymidine as previously described (Saward and Zahradka, 1997, Mol Cell Biochem 176: 53-59) with modification. Briefly, 2.5×10^4 cells (counted with a hemacytometer) in DMEM/F12 with 10% FBS were loaded into each well of 24-well culture plates, allowed to attach overnight and rendered quiescent in serum-free DMEM with 100 μM ascorbate for 24 hours. S-phase re-entry in response to CT-1 was measured in two ways: pulse labeling with ^3H-thymidine for 30 minutes every 6 hours, or labeling for the last 30 minutes of 6 or 12 hour incubation. DNA in cell lysate was precipitated with cold 20% trichloroacetic acid (TCA) and filtered through GF/A filters (Fisher). Beta emission from the dried filers was measured with Cytoscint scintillation fluid (ICN Pharmaceuticals, Costa Mesa, Calif.) and a scintillation counter (LS6500, Beckman Coulter, Fullerton, Calif.).

cardiac fibroblasts [6] = test: Nuclear accumulation of PCNA; format: cell-based, rat; conditions: CT-1 for 24 hours
Description: Cardiac fibroblasts were seeded onto cover slips and allowed to attach overnight. The cells were incubated with serum free media for 24 hours prior to stimulation with CT-1 for an additional 24 hours. The cells were then fixed with cold acetone, permeabilized and immunostained for PCNA and counter stained with Hoechst 33342. Images from 5 high power fields per slide were captured and cells were counted. Nuclei that were positive for PCNA were counted and expressed as a ratio to total nuclei.

cardiac fibroblasts [7] = test: Collagen synthesis (P1CP radioimmunoassay of conditioned media); format: cell-based, rat; conditions: CT-1 for 24 hours
Description: Synthesis of mature type I collagen was determined by measuring the concentration of the carboxyterminal propeptide of type I collagen (P1CP) in conditioned media from CT-1 treated or untreated cardiac fibroblasts. 5×10^4 cells were loaded into each well of a 6 well plate, allowed to attach overnight, and serum starved for 24 hours. Cells were treated with CT-1 at specified concentrations for an additional 24 or 48 hours. P1CP content in 0.1 mL conditioned media was determined by radioimmunoassay according to the manufacturer's specification (Diasorin Inc, Stillwater, Minn.). Radioactivity was quantified with a gamma counter (Gamma 5500, Beckman Coulter, Fullerton, Calif.) and the concentration of P1CP was determined by the % B/B0 versus log concentration.

cardiac fibroblasts [8] = test: Western analysis of cell cycle regulatory proteins (cyclins, Rb); format: cell-based, rat
Description: Protein concentrations of tissue and cell lysates were determined by the BCA method (Smith et al., 1985, Anal Biochem 150: 76-85). Proteins were separated by 8-12% SDS-PAGE and transferred to PVDF membrane (Roche, Indianapolis, Ind.) for 1 hour at 300 mA for small proteins or for 2 hours at 500 mA for proteins greater than 100 kDa. Membranes were blocked with 5% non-fat skim milk in tris-buffered saline containing 0.2% Tween 20 (TBST). Proteins were visualized with ECL Plus (Amersham) after probing with primary and secondary antibodies. Band intensity was quantified using a CCD camera imaging densitometer (GS670, Bio-Rad Laboratories (Canada) Ltd. Mississauga, Ontario).
Cardiac fibroblasts were isolated from the ventricles of rats and incubated with CT-1 for specified times and at specified concentrations. […] Addition of CT-1 results in S-phase re-entry within 6 hours of stimulation (FIG. 7). […] (FIG. 8). […] To determine the effect of CT-1 on cell cycle regulatory proteins, we incubated cardiac fibroblasts with CT-1 and lysed them at specified times. […] To determine if increased DNA synthesis was accompanied by an increase in cell number, we repeated the experiments in the absence of ^3H-thymidine, detached the cells from the plates and counted the total number of cells.

B1: cardiotrophin-1 (protein, UniProt Q16619 1-201, looked up)
Cardiotrophin-1: MSRREGSLEDPQTDSSVSLLPHLEAKIRQTHSLAHLLTKYAEQLLQEYVQLQGDPFGLPSFSPPRLPVAGLSAPAPSHAGLPVHERLRLDAAALAALPPLLDAVCRRQAELNPRAPRLLRRLEDAARQARALGAAVEALLAALGAANRGPRAEPPAATASAASATGVFPAKVLGLRVCGLYREWLSRTEGDLGQLLPGGSA
notes: gp130 signaling cytokine of the LIF or IL-6 superfamily; 201 amino acids as a mature protein, 21.5 kDa
- localization of cortactin (cardiac fibroblasts [1]): at the leading edge of lamellipodia
- cardiac fibroblast migration (rat cardiac fibroblasts; CT-1 gradient, overnight): induced cardiac fibroblast migration in a dose dependent manner
- dependence of CT-1 induced migration (rat cardiac fibroblasts; ion channel and myosin light chain kinase function): dependent on functioning potassium channels and myosin light chain kinase
- dependence of CT-1 chemotaxis (rat cardiac fibroblasts; specific inhibitors of signaling pathways, integrin inhibitors): dependent on intracellular signaling pathways
- nuclear accumulation of STAT3 (cardiac fibroblasts [2]): nuclear accumulation of STAT3
- chemotactic effect [3]: does appear to have a chemotatic effect
- total cell number (cardiac fibroblasts [4]): increase in total cell number
- CT-1 dose of peak 3H thymidine incorporation (maximal DNA synthesis) (cardiac fibroblasts [5]; 6 or 12 hours incubation): 10 to 20 ng/mL
- lowest CT-1 concentration with elevated incorporation of 3H thymidine (cardiac fibroblasts [5]; 6 or 12 hours incubation): 1 ng/mL
- pathway dependence of CT-1 induced cell proliferation (DNA synthesis) (cardiac fibroblasts [5]; pretreatment with inhibitors, CT-1 10 ng/mL for 12 hours): dependent on Jak, P13-K, MAPK, and Src kinases
- time to S-phase re-entry after addition of CT-1 (cardiac fibroblasts [5]; quiescent cells, 10 ng/mL CT-1, 3H-thymidine pulse labeling): ≤ 6 h
- nuclear expression of PCNA (cardiac fibroblasts [6]): increased nuclear expression of PCNA
- P1CP expression normalized to the number of cells at the end of the experiment (cardiac fibroblasts [7]; corrected for cell number): apparent decrease in overall mature collagen synthesis
- expression of P1CP in the culture media (mature collagen synthesis) (cardiac fibroblasts [7]; not normalized): increased expression of P1CP
- phosphorylation of the retinoblastoma protein (cardiac fibroblasts [8]; Rb pS795, pS807/811): hyperphosphorylation
- expression of cyclins (cardiac fibroblasts [8]; cyclins A, E, CT-1 for specified times): increase in expression of cyclins
